Test results: article PMC2847487

Experiments:
[1] = target: C-terminal myc-tagged sortilin (UniProt Q99523); test: co-IP
[2] = target: triple-site mutant proNGF (mouse, cleavage-resistant) (mouse); test: crystal structure
[3] = target: sortilin extracellular region with C-terminal biotinylation acceptor peptide, biotinylated (human) (human) (UniProt Q99523); test: SPR
[4] = size exclusion chromatography of p75NTR alone; conditions: glycan lost; control: wild-type glycosylated p75NTR

## N-terminal HA tagged-proNGF (from UniProt P01139 122-241) (ligand)
[1]
  fold increase of the proNGF:sortilin interaction with calcium over EDTA: 2.3 fold

## p75NTR extracellular portion, Asn32 to Asp glycosylation site mutant (rat) (from UniProt P07174 29-190) (receptor)
[2]
  stoichiometry N (p75NTR per proNGF chain (2:2)): 1

## proNGF/p75NTR complex (preformed) (from UniProt P07174 29-190)
[3]
  Kd: 140 nM

B1: p75NTR: Asn32 to Asp (protein)
parent chain: MRRAGAACSAMDRLRLLLLLILGVSSGGAKETCSTGLYTHSGECCKACNLGEGVAQPCGANQTVCEPCLDNVTFSDVVSATEPCKPCTECLGLQSMSAPCVEADDAVCRCAYGYYQDEETGHCEACSVCEVGSGLVFSCQDKQNTVCEECPEGTYSDEANHVDPCLPCTVCEDTERQLRECTPWADAECEEIPGRWIPRSTPPEGSDSTAPSTQEPEVPPEQDLVPSTVADMVTTVMGSSQPVVTRGTTDNLIPVYCSILAAVVVGLVAYIAFKRWNSCKQNKQGANSRPVNQTPPPEGEKLHSDSGISVDSQSLHDQQTHTQTASGQALKGDGNLYSSLPLTKREEVEKLLNGDTWRHLAGELGYQPEHIDSFTHEACPVRALLASWGAQDSATLDALLAALRRIQRADIVESLCSESTATSPV
[4]
  oligomerisation: no change
